Measurements taken from paper PMC3439536.

Biological target: Human CR2 SCR1-4-BCCP, site-specifically biotinylated (human) (UniProt P20023)
Test: SPR

Sequence of Human CR2 SCR1-4-BCCP, site-specifically biotinylated (human) (P20023 21-273): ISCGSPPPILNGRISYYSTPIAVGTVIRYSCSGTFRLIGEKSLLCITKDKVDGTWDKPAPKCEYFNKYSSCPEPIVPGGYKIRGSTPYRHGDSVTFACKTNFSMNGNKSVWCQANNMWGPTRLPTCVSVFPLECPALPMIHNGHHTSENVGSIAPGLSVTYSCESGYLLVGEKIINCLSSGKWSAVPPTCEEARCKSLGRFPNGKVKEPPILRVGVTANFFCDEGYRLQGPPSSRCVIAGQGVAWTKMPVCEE
Sequence of 70 kDa fragment of the Epstein-Barr virus gp350/220 coat protein (P03200 whole entry, the tested form may be a part): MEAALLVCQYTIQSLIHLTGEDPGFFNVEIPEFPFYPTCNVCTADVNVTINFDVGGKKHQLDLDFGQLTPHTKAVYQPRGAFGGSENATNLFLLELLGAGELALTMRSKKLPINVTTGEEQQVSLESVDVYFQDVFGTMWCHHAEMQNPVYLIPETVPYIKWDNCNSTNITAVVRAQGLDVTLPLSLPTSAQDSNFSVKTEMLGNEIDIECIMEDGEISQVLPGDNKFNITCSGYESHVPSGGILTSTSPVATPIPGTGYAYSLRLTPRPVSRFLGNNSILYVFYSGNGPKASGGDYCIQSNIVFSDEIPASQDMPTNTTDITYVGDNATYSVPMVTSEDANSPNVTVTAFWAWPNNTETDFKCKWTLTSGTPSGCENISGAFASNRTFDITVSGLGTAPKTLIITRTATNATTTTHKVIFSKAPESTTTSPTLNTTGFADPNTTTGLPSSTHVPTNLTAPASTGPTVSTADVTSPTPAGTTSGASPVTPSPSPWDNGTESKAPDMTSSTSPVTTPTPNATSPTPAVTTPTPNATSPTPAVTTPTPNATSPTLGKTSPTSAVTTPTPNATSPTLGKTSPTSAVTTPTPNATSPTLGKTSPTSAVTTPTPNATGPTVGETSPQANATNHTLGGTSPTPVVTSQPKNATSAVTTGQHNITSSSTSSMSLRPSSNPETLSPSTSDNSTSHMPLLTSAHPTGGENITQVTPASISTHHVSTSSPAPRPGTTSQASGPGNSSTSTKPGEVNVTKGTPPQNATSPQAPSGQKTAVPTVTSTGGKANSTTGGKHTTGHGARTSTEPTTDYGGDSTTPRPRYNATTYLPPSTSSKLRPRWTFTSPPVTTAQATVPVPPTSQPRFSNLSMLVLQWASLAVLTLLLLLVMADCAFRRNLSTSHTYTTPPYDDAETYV

70 kDa fragment of the Epstein-Barr virus gp350/220 coat protein (from UniProt P03200-1 1-907) (domain or fragment)
KD1 (higher affinity site, two-site model): 0.417 µM
